{"source": "paper PMC10873366", "binders": {"B1": {"name": "Sox2 C-terminal intrinsically disordered region (C-IDR) (protein)", "chain": "MKKDKYTLPGGLLAPGGNSMASGVGVGAGLGAGVNQRMDSYAHMNGWSNGSYSMMQDQLGYPQHPGLNAHGAAQMQPMHRYDVSALQYNSMTSSQTYMNGSPTYSMSYSQQGTPGMALGSMGSVVKSEASSSPPVVTSSSHSRAPCQAGDLRDMISMYLPGAEVPEPAAPSRLHMSQHYQSGPVPGTAINGTLPLSHM"}}, "key": {"[1]": {"target": "Sox2 N-terminal domain and DBD (N-DBD)", "sequence (chain, as listed by the source)": "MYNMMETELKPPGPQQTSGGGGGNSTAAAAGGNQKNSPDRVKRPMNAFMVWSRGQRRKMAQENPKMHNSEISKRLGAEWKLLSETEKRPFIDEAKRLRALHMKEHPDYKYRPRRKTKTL", "experiment": "NMR; residue Ala 287", "details": "domain or fragment; Limits are not printed. They are inferred from the C-IDR label position 120, the +9/-9 charge count, and 180 observable HSQC peaks (198 residues minus 17 Pro and the N-terminal residue). The NMR sample was 15N-labelled or unlabelled. The His6-SUMO tag was removed. The smFRET version carries dyes at 120 and 265. Limits are not printed. They are inferred from 109 expected HSQC peaks (119 residues m); modification not given"}, "[2]": {"target": "Sox2 N-terminal domain and DBD (N-DBD)", "experiment": "NMR; residue Ser 290", "details": "domain or fragment; Limits are not printed. They are inferred from the C-IDR label position 120, the +9/-9 charge count, and 180 observable HSQC peaks (198 residues minus 17 Pro and the N-terminal residue). The NMR sample was 15N-labelled or unlabelled. The His6-SUMO tag was removed. The smFRET version carries dyes at 120 and 265. Limits are not printed. They are inferred from 109 expected HSQC peaks (119 residues m); modification not given"}}}
{"binder": "B1", "values": [{"measurement": "Kd", "setting": "[1]", "value": 93, "unit": "µM"}, {"measurement": "Kd", "setting": "[2]", "value": 74, "unit": "µM"}]}
